These results are taken from patent US20260008815A1, “CYCLIC PEPTIDE OR SALT THEREOF, AND USES THEREOF” (FUJIFILM Corporation, priority 2023, published 2026).

Numbered stars: 1 amine (or outer) side, 2 acyl side, 3 side chain; on linkers, the order of the positions; unused ones are H or OH. Bridge positions count the residues as written; N and C are the ends. Square brackets hold non-standard residues; d marks the D form. Primed or numbered codes have the meaning given here. Ends that are not written are not given here. acetyl″ = bridging -C(=O)-CH2- from a haloacetyl (chloroacetyl) group on the side-chain amine of K/Orn/Dab/Dap, the thiol sulfur replaces the halogen on its CH2 (X(acetyl) notation); acetyl = acetyl (haloacetyl before ring closure) on the side-chain amine, O=C(C[*:1])[*:2]; COCH2 = acetyl group that carries the bridge; hCys = N[C@@H](CCS)C(=O)O

The target in data set [1] is T1, Recombinant Human FGFR2 alpha (IIIc) Fc Chimera Protein (Homo sapiens, UniProt P21802).
T1 construct: Fc (chimera); purchased R&D systems 712-FR-050
T1 sequence (P21802 with tags, fused parts or gaps limits assumed): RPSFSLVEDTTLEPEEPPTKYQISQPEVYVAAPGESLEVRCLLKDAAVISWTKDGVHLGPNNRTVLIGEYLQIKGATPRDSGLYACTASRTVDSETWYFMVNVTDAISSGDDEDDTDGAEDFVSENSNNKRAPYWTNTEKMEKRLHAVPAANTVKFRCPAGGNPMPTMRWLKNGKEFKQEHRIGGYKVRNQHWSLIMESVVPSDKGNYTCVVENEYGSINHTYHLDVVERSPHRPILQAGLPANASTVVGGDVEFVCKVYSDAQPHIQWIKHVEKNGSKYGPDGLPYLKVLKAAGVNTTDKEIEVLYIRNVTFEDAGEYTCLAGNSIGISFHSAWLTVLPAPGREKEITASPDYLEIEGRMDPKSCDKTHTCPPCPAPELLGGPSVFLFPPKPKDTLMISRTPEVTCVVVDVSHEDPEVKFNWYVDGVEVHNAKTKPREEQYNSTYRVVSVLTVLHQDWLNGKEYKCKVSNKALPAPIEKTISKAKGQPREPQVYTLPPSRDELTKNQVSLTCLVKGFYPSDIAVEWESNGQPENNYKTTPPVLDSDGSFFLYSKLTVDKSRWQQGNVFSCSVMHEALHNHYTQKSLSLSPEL
Description: SPR binding affinity of chemically synthesized cyclic peptide to immobilized FGFR. Particulars: SPR binding amount at 10 nmol/L cyclic peptide, 25° C., per one molecule of FGFR; chemically synthesized product. The method, then: The binding affinity of the cyclic peptide to FGFR was evaluated using a surface plasmon resonance (SPR) method.
(§1) A CM5 sensor chip (Cytiva, 29149603) was set in Biacore-T200 (manufactured by Cytiva) which is a surface plasmon resonance device, and an HBS-EP buffer (Cytiva, BR100826) was added as a running buffer at a flow rate of 10 μL/min to equilibrate the flow channel. Next, 70 μL of a mixed aqueous solution of 0.2 mol/L 1-(3-dimethylaminopropyl)-3-ethylcarbodiimide (EDC) and 0.05 mol/L N-hydroxysuccinimide (NHS) was added to activate the sensor chip. Then, Recombinant Human FGFR2 alpha (IIIc) Fc Chimera Protein CF (R&D systems, 712-FR-050) prepared at 50 nmol/L in an Acetate 4.5 buffer (Cytiva, BR100350) was added thereto to perform immobilization at about 5000 RU. Thereafter, the blocking treatment was performed with an ethanolamine solution. In addition, in another flow channel of the same sensor chip, blocking treatment was performed immediately after activation without immobilizing FGFR.
(§2) A cyclic peptide diluted to 10 nmol/L using HBS-EP was added to each flow channel of the FGFR-immobilized sensor chip produced above at 25° C. for 10 minutes, then HBS-EP was allowed to flow as a running buffer for 30 minutes, and the binding of the cyclic peptide to FGFR was measured. Thereafter, a regeneration treatment of removing the bound cyclic peptide was performed by repeating the flow of a regeneration liquid in which sodium chloride powder was dissolved in Glysine 1.5 (Cytiva, BR100354) to a final concentration of 0.15 mol/L for 1 minute in each flow channel twice. The binding amount of the cyclic peptide was evaluated from the difference between the measured value of Biacore-T200 in the flow channel in which FGFR was immobilized and the measured value of Biacore-T200 in the flow channel in which FGFR was not immobilated, in a case where a 10 nmol/L cyclic peptide was allowed to flow.
The binding amount of the cyclic peptide evaluated above was normalized to the binding amount of the cyclic peptide molecules per one molecule of FGFR using the molecular weights of the cyclic peptide and FGFR, and the binding affinity to FGFR was evaluated according to the following evaluation criteria. The evaluation result preferably satisfies the evaluation criteria A, B, or C.
A general note: In SPR one partner is held on a chip, and binding of the other changes the refractive index at the surface.

Data set [2] in a line: Molecular stability after reducing agent (DTT) treatment, LC. In kind it is physicochemical. The following applies: residual rate after DTT aqueous solution, room temperature, 1 hour. The method, then: The molecular stability of the cyclic peptide was evaluated by analyzing an aqueous solution of the cyclic peptide treated with a reducing agent by liquid chromatography (LC).
The reducing agent treatment was performed under the following conditions based on the concentration of glutathione contained in the cells. 25 μL of a 0.2 mg/mL cyclic peptide aqueous solution was prepared, 58.8 μL of a 12.6 mmol/L DTT aqueous solution was added to the aqueous solution, and the mixture was incubated at room temperature for 1 hour to obtain an aqueous solution of the cyclic peptide treated with a reducing agent. The DTT aqueous solution was used by diluting a 1 mol/L (+−)-dithiothreitol (DTT) solution (FUJIFILM Wako Pure Chemical Corporation, 044-33871) with water. The total area of all the peaks in LC/MS of the cyclic peptide before the reducing agent treatment was set to 100%, and the proportion of the total area of all the peaks in LC/MS of the aqueous solution of the cyclic peptide treated with the reducing agent was determined to calculate the residual rate of the cyclic peptide, and the molecular stability was evaluated according to the following evaluation criteria. The evaluation result preferably satisfies the evaluation criteria A, B, or C.
The LC used for the evaluation of molecular stability was set to the following conditions. • LC device: Prominence series (pump, column oven, autosampler, detector) (manufactured by Shimadzu Corporation) • Detector: photodiode array detector (SPD-M20A), measurement wavelength of 280 nm • Column: TSKgel ODS-100V, inner diameter of 4.6 mm×length of 150 mm, particle diameter of 5 μm (manufactured by Tosoh Corporation) • Eluent A: solution containing 0.1% trifluoroacetic acid as solute, and solvent is 100% water • Eluent B: solution containing 0.1% trifluoroacetic acid as solute, and solvent is 100% acetonitrile • Flow rate: 1.0 mL/min • Injection amount: 25 μL • Gradient: 20% to 50%: Eluent B (0 to 15 minutes), 100%: Eluent B (15 minutes) • Column temperature: 40° C.

Data set [3] deals with T2, Recombinant Human FGFR2 alpha (IIIc) Fc Chimera Protein, CF (R&D systems, 712-FR-050) (human, UniProt P21802 22-377).
T2 construct: bought; not shown: Fc part of the chimera
T2 sequence (P21802 22-377, change not shown): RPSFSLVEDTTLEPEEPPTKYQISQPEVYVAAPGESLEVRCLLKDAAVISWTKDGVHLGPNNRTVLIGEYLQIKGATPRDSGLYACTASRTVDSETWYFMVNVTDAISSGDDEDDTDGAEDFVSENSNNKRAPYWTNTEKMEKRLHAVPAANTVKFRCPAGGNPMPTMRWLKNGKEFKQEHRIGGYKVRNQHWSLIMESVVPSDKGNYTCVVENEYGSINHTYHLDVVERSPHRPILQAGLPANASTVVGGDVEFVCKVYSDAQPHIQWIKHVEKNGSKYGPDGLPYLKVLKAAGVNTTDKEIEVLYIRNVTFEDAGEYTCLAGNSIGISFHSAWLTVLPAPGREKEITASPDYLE
Description: SPR, 10 nmol/L peptide over immobilized FGFR2-Fc. Here is the method: as §1, §2

With “442 (YXEENYLDPEQYQYFIYFKYKKK; not fully specified; Description of Artificial Sequence: Cyclic peptide) [compound 442]”, the “Evaluation result of binding affinity to FGFR” value (“Evaluation result … to FGFR” for short) in data set [1] is given as “A (The binding amount is 0.7 molecules of the cyclic peptide/one molecule of FGFR or more.)”. Further, in data set [2], the “Evaluation result of reductive stability” value is recorded as “A (The residual rate of cyclic peptide is 90% or more.)”.
The like results for “433 (Q[hCys]PQNFINPVQWRYFQHYK(COCH2)NKKK; thioether 2-19 via acetyl) [compound 433]” were, in that order, “A (The binding amount is 0.7 molecules of the cyclic peptide/one molecule of FGFR or more.)” and “A (The residual rate of cyclic peptide is 90% or more.)”.
The like results for “448 (YXEENYLDPEQYQYFIYFXYKKK; not fully specified; Description of Artificial Sequence: Cyclic peptide) [compound 448]” were, in that order, “A (The binding amount is 0.7 molecules of the cyclic peptide/one molecule of FGFR or more.)” and “A (The residual rate of cyclic peptide is 90% or more.)”.
The like results for “449 (YXEENYLDPEQYQYFIYFXYKKK; not fully specified; Description of Artificial Sequence: Cyclic peptide) [compound 449]” were, in that order, “A (The binding amount is 0.7 molecules of the cyclic peptide/one molecule of FGFR or more.)” and “A (The residual rate of cyclic peptide is 90% or more.)”.
In the case of “435 (QXPQNFINPVQWRYFQHYXNKKK; not fully specified; Description of Artificial Sequence: Cyclic peptide) [compound 435]”, in data set [1], the “Evaluation result … to FGFR” value is recorded as “A (The binding amount is 0.7 molecules of the cyclic peptide/one molecule of FGFR or more.)”. Besides, the “Evaluation result of reductive stability” value in data set [2] is on record as “A (The residual rate of cyclic peptide is 90% or more.)”.
In the case of “454 (XHENYLDPEQYQYFHYFKYKKK; Description of Artificial Sequence: Cyclic peptide) [compound 454]”, the “Evaluation result … to FGFR” value in data set [1] was “C (The binding amount is 0.1 molecules of cyclic peptide/one molecule of FGFR or more and less than 0.5 molecules of cyclic peptide/one molecule of FGFR.)”. Further, the “Evaluation result of reductive stability” value in data set [2] was “B (The residual rate of the cyclic peptide is 70% or more and less than 90%)”.
As to “447 (YXEENYLDPEQYQYFIYFXYKKK; not fully specified; Description of Artificial Sequence: Cyclic peptide) [compound 447]”, the “Evaluation result … to FGFR” value in data set [1] is recorded as “A (The binding amount is 0.7 molecules of the cyclic peptide/one molecule of FGFR or more.)”. Moreover, in data set [2], the “Evaluation result of reductive stability” value is “A (The residual rate of cyclic peptide is 90% or more.)”.
On to “443 (YXEENYLDPEQYQYFIYFXYKKK; not fully specified; Description of Artificial Sequence: Cyclic peptide) [compound 443]”, for which, in data set [1], the “Evaluation result … to FGFR” value is “A (The binding amount is 0.7 molecules of the cyclic peptide/one molecule of FGFR or more.)”. Moreover, in data set [2], the “Evaluation result of reductive stability” value was “A (The residual rate of cyclic peptide is 90% or more.)”.
For “434 (QXPQNFINPVQWRYFQHYXNKKK; not fully specified; Description of Artificial Sequence: Cyclic peptide) [compound 434]” the same measures were “A (The binding amount is 0.7 molecules of the cyclic peptide/one molecule of FGFR or more.)” and “A (The residual rate of cyclic peptide is 90% or more.)”.
For “453 (YXHENYLDPEQYQYFHYFKKKK; Description of Artificial Sequence: Cyclic peptide) [compound 453]”, the “Evaluation result … to FGFR” value in data set [1] was “C (The binding amount is 0.1 molecules of cyclic peptide/one molecule of FGFR or more and less than 0.5 molecules of cyclic peptide/one molecule of FGFR.)”. In data set [2], the “Evaluation result of reductive stability” value is reported as “A (The residual rate of cyclic peptide is 90% or more.)”.
For the molecule “441 (QXPQNFINPVQWRYFQHYXNKKK; not fully specified; Description of Artificial Sequence: Cyclic peptide) [compound 441]”, the “Evaluation result … to FGFR” value in data set [1] is listed as “A (The binding amount is 0.7 molecules of the cyclic peptide/one molecule of FGFR or more.)”. Besides, the “Evaluation result of reductive stability” value in data set [2] is recorded as “A (The residual rate of cyclic peptide is 90% or more.)”.

B1: cyclic peptide SEQ ID NO: 449 (peptide)
peptide: YXEENYLDPEQYQYFIYFXYKKK
modifications: not fully specified; thioether ring (Dap(acetyl))-(Hcy)
notes: chemically synthesized
For the molecule B1, in data set [3], the “binding amount (SPR, cyclic peptide molecules bound per FGFR molecule at 10 nmol/L peptide)” value is ≥ 0.7 moleculesofthecyclicpeptide/onemoleculeoffgfr.

B2: cyclic peptide SEQ ID NO: 447 (peptide)
peptide: YXEENYLDPEQYQYFIYFXYKKK
modifications: not fully specified; thioether ring (Orn(acetyl))-(Hcy)
notes: chemically synthesized
For the molecule B2, the “binding amount (SPR, cyclic peptide molecules bound per FGFR molecule at 10 nmol/L peptide)” value in data set [3] was ≥ 0.7 moleculesofthecyclicpeptide/onemoleculeoffgfr.

B3: cyclic peptide SEQ ID NO: 451 (peptide)
peptide: YCEENYLDPEQYQYFIYFCYKKK
modifications: disulfide 2-19 (inferred)
notes: chemically synthesized
As to B3, the “binding amount (SPR, cyclic peptide molecules bound per FGFR molecule at 10 nmol/L peptide)” value in data set [3] is < 0.1 moleculesofthecyclicpeptide/onemoleculeoffgfr.

B4: cyclic peptide SEQ ID NO: 442 (peptide)
peptide: Y[hCys]EENYLDPEQYQYFIYFK(COCH2)YKKK
modifications: thioether 2-19 via acetyl″
notes: chemically synthesized
As to B4, in data set [3], the “binding amount (SPR, cyclic peptide molecules bound per FGFR molecule at 10 nmol/L peptide)” value is ≥ 0.7 moleculesofthecyclicpeptide/onemoleculeoffgfr.

B5: cyclic peptide SEQ ID NO: 452 (peptide)
peptide: YXHENYLDPEQYQYFHYFKYKKK
modifications: thioether ring (Hcy)-(K(acetyl))
notes: chemically synthesized
Take B5: the “binding amount (SPR, cyclic peptide molecules bound per FGFR molecule at 10 nmol/L peptide)” value in data set [3] was ≥ 0.7 moleculesofthecyclicpeptide/onemoleculeoffgfr.

B6: cyclic peptide SEQ ID NO: 446 (peptide)
peptide: YKEENYLDPEQYQYFIYFXYKKK
modifications: thioether ring (K(acetyl))-(Hcy)
notes: chemically synthesized
On to B6, for which, in data set [3], the “binding amount (SPR, cyclic peptide molecules bound per FGFR molecule at 10 nmol/L peptide)” value is ≥ 0.7 moleculesofthecyclicpeptide/onemoleculeoffgfr.

B7: cyclic peptide SEQ ID NO: 448 (peptide)
peptide: YXEENYLDPEQYQYFIYFXYKKK
modifications: not fully specified; thioether ring (Dab(acetyl))-(Hcy)
notes: chemically synthesized
For B7, the “binding amount (SPR, cyclic peptide molecules bound per FGFR molecule at 10 nmol/L peptide)” value in data set [3] was ≥ 0.7 moleculesofthecyclicpeptide/onemoleculeoffgfr.

B8: cyclic peptide SEQ ID NO: 454 (peptide)
peptide: XHENYLDPEQYQYFHYFKYKKK
modifications: thioether ring (Hcy)-(K(acetyl))
notes: chemically synthesized
On to B8, for which the “binding amount (SPR, cyclic peptide molecules bound per FGFR molecule at 10 nmol/L peptide)” value in data set [3] is 0.1 to 0.5 moleculesofthecyclicpeptide/onemoleculeoffgfr.

B9: cyclic peptide SEQ ID NO: 453 (peptide)
peptide: YXHENYLDPEQYQYFHYFKKKK
modifications: thioether ring (Hcy)-(K(acetyl))
notes: chemically synthesized
Regarding B9, the “binding amount (SPR, cyclic peptide molecules bound per FGFR molecule at 10 nmol/L peptide)” value in data set [3] was 0.1 to 0.5 moleculesofthecyclicpeptide/onemoleculeoffgfr.

B10: cyclic peptide SEQ ID NO: 444 (peptide)
peptide: YXEENYLDPEQYQYFIYFXYKKK
modifications: not fully specified; thioether ring (Hcy)-(Dab(acetyl))
notes: chemically synthesized
Consider B10, for which, in data set [3], the “binding amount (SPR, cyclic peptide molecules bound per FGFR molecule at 10 nmol/L peptide)” value was 0.5 to 0.7 moleculesofthecyclicpeptide/onemoleculeoffgfr.

B11: cyclic peptide SEQ ID NO: 443 (peptide)
peptide: YXEENYLDPEQYQYFIYFXYKKK
modifications: not fully specified; thioether ring (Hcy)-(Orn(acetyl))
notes: chemically synthesized
Take B11: in data set [3], the “binding amount (SPR, cyclic peptide molecules bound per FGFR molecule at 10 nmol/L peptide)” value is ≥ 0.7 moleculesofthecyclicpeptide/onemoleculeoffgfr.
